Source: patent US20230174635A1 (UCB, published 2023)

How the values were obtained:
Assay in all cases: cell-based or functional assay
mouse Gremlin = target: T1, mouse Gremlin (mouse, UniProt O70326 25-184)
T1 sequence (looked up): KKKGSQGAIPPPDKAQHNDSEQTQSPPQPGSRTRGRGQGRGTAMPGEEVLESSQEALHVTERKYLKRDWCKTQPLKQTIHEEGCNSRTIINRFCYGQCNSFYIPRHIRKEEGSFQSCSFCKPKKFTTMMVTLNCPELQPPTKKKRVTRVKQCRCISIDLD

[1] = target: T2, recombinant human Gremlin-1 (human, UniProt O60565 25-184)
T2 sequence: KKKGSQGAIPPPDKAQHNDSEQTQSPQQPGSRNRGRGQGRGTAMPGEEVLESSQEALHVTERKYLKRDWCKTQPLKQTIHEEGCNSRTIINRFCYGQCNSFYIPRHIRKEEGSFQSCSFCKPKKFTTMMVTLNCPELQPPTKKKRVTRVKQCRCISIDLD

BMP4/7 heterodimer = target: T3, BMP4/7 heterodimer (human, UniProt P12644 293-408; P18075 293-431)
T3 sequence (looked up) 1: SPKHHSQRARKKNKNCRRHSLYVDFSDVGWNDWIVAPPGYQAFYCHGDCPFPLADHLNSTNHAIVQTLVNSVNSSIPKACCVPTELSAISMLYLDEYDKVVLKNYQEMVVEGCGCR
T3 sequence (looked up) 2: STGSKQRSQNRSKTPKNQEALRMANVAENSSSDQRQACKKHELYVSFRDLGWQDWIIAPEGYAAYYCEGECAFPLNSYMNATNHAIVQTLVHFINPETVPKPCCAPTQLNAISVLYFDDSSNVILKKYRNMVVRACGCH

Row | Binder | IC50, restoration of BMP signalling blocked by mouse Gremlin, HEK-ID1 reporter gene assay (mouse Gremlin) | IC50, restoration of BMP signalling blocked by human Gremlin, HEK-ID1 reporter gene assay [1] | IC50 (geometric mean, N=2), inhibition of BMP4/7 signalling, Hek-Id1 reporter gene assay (BMP4/7 heterodimer)
1 | Ab7326 (antibody, V domains shown) VH: QVQLVESGAEVKKPGATVKISCKVSGYTFTDYYMHWVQQAPGKGLEWMGLVDPEDGETIYAEKFQGRVTITADTSTDTAYMELSSLRSEDTAVYYCATDARGSGSYYPNHFDYWGQGTLVTVSS VL: not shown | 0.2 nM | 1.3 nM | 
2 | truncated human Gremlin-1 with N-terminal 6His-TEV tag (ligand) MGSSHHHHHHSSGENLYFQGSAMPGEEVLESSQEALHVTERKYLKRDWCKTQPLKQTIHEEGCNSRTIINRFCYGQCNSFYIPRHIRKEEGSFQSCSFCKPKKFTTMMVTLNCPELQPPTKKKRVTRVKQCRCISIDLD |  |  | 1.7 nM
